{"source": "paper PMC7721721", "system": "anti-digoxigenin IgG antibody (sheep)", "assay": "fluorescence (FRET) titration", "conditions": "5'-digoxigenin; 25 mM HEPES pH 7.2, 0.1 M NaCl, 37 C (FRET titrations, templated reactions); native PAGE binding buffer not given in the material", "data": [{"sequence": "GTCACCGCAAAATAAGATTTTTTTTTTGAGTCGAATTCGTACC [DIG-Q-strand#2 (DIG-conjugated templating strand)]", "values": [{"measurement": "Kd", "result": 3.6, "unit": "nM"}]}]}
